Data published in patent US20010052137A1, “Axin domain-like polypeptide inhibitors of glycogen synthase kinase 3 beta activity and activators of wnt signaling” (Trustees of the University of Pennsylvania, priority 2000, published 2001).

Experiments:
GSK-3 beta [1] = experiment: Co-immunoprecipitation of GSK-3 beta with Myc-tagged Xaxin constructs in Xenopus oocytes; type: binding; details: Myc-tagged construct co-expressed with GSK-3 beta in Xenopus oocytes; anti-Myc IP, anti-GSK-3 beta blot
beta-catenin = beta-catenin protein accumulation in Xenopus oocytes (immunoblot); type: cell-based; details: construct mRNA expressed in Xenopus oocytes
Procedure: FIG. 2A is an image of an immunoblot of Xenopus cytoplasmic extracts obtained from Xenopus embryos in which beta-catenin was expressed, using an antibody which binds specifically with beta-catenin (described in McCrea et al., 1993, J. Cell. Biol. 123:477-84). The embryo corresponding to lane 2 was incubated in the presence of 20 millimolar LiCI. Extracts corresponding to lanes 3-5, 7, and 8 were obtained from embryos in which full-length (lane 8) Xaxin or the C-term (lane 3), GID1 (“GID”; lanes 4 and 7), or N-term (lane 5) fragments of Xaxin were expressed.
Although endogenous GSK-3 beta is not present at sufficient levels to detect using the tau assay, inhibition of GSK-3 beta is known to cause stabilization of cytoplasmic beta-catenin (Cadigan et al., 1997, Genes Dev. 11:3286-3305; Miller et al., 1996, Genes Develop. 10:2527-2539), and this serves as a widely used assay for downstream activation of wnt signaling. Inhibition of endogenous GSK-3 beta activity also causes stabilization of beta-catenin in Xenopus embryos and oocytes (Hedgepeth et al., 1997, Develop. Biol. 185:82-91; Yost et al., 1998, Cell 93:1031-1041; Yost et al., 1996, Genes Develop. 10:1443-1454). For this reason, levels of beta-catenin protein were assessed in Xenopus oocytes which had been injected either with full length Xaxin mRNA or with mRNA encoding one of the amino-terminal, GID, or carboxyl-terminal domains of Xaxin.

GSK-3 beta [2] = experiment: In ovo tau phosphorylation assay: GSK-3 beta and Xaxin constructs co-expressed in Xenopus oocytes; type: cell-based; details: construct co-expressed with GSK-3 beta in Xenopus oocytes; tau microinjected; PHF-1 immunoblot
Procedure: Stage VI Xenopus oocytes were isolated by collagenase treatment (Smith et al., 1994, Meth. Cell Biol. 36:45-58) and were injected with mRNA prepared by in vitro transcription (mMessage Machine™; Ambion, Austin, Tex.). 10 nanoliters of mRNA (containing 1-2 nanograms per nanoliter) was injected for each construct (unless otherwise specified), and the injected oocytes were incubated for 16 hours at 18° C. To analyze the effects of Xaxin constructs on dorsal-ventral pattern formation, Xenopus embryos were injected with 10 nanoliters of mRNA (0.1-0.2 nanogram per nanoliter) into one dorsal or ventral cell of a 4 cell embryo and dorsal axes were assessed at the tadpole stage. For Xaxin co-immunoprecipitation, fertilized eggs were injected with 10 nanoliters of Xaxin tagged with Myc, with hemagglutinin, or with both Myc and hemagglutinin (1 nanogram per nanoliter) and harvested at the blastula stage (stage 8).
(§1) In ovo phosphorylation of tau by GSK-3 beta was performed by microinjection of tau protein into oocytes expressing GSK-3 beta and Xaxin constructs. After 90 minutes, oocytes were homogenized and tau phosphorylation was analyzed in western blots using phospho-specific antibodies as described (Hedgepeth et al., 1997, Develop. Biol. 185:82-91). In vitro assays for GSK-3 beta activity were performed as described (Klein et al., 1996, Proc. Natl. Acad. Sci. USA 93:8455-8459). Recombinant GID-2/his protein (described below) was purified by affinity chromatography and added to in vitro assays at selected concentrations.
In the experiments presented in this example, a tau phosphorylation assay (described in Hedgepeth et al., 1997, Develop. Biol. 185:82-91) was used to examine the activity of GSK-3 beta in Xenopus oocytes in the presence of full length axin and axin deletion mutants. […] Furthermore, GSK-3 beta-dependent tau phosphorylation occurs in oocytes at the same sites (tau serine residues 396 and 404) that are phosphorylated by GSK-3 beta in vitro and occurs with similarly rapid kinetics.
GSK-3 beta was expressed in oocytes together with Myc-tagged full length Xaxin or with the amino-terminal (amino acid residues 63-288), GID-1 (amino acid residues 277-545), or carboxyl-terminal (amino acid residues 429-713) fragments of Xaxin, as depicted in FIG. 1A. Purified tau protein was then microinjected into the oocytes, and phosphorylation of tau was measured by immunoblotting using antibody PHF-1 or with antibodies that detect all (i.e. phosphorylated and non-phosphorylated) forms of tau.
In order to identify the domain of axin necessary for GSK-3 beta binding, multiple Myc-tagged GID deletion constructs (shown diagrammatically in FIG. 3A) were individually expressed in Xenopus oocytes in which GSK-3 beta was also expressed. Tau protein was microinjected into the oocytes, and immunoblotting was performed using phosphorylation-state-specific tau antibodies. A parallel group of oocytes expressing GSK-3 beta and the Myc-tagged GID deletion constructs were lysed, and GID proteins were immunoprecipitated using a Myc-specific antibody. The presence or absence of GSK-3 beta in GID immunoprecipitates was detected using GSK-3 beta-specific antibodies. GID deletion constructs which included amino acid residues 380-404 of Xaxin (i.e. constructs GID-1, GID-2, GID-4, GID-5, and GID-6) bound GSK-3 beta and inhibited GSK-3 beta mediated tau phosphorylation, as indicated in FIG. 3A. […] However, changing leucine residue 392 in FIG. 3B to proline abolishes its activity.

Xenopus embryos = experiment: Dorsal axis duplication / dorsalization in Xenopus embryos after mRNA injection; type: in vivo; details: construct expressed in embryos, injection side not stated
GSK-3 beta [3] = experiment: In vitro binding of GSK-3 beta to GID-2/his on nickel agarose; details: 25 nanomolar GSK-3 beta
Procedure: A cDNA (GID-2) encoding amino acid residues 320-429 of Xaxin was cloned into pET29b (Novagen, Madison, Wis.) in frame with the His-epitope tag. The resulting encoded GID-2/his fusion protein was expressed in BL2I/DE3 cells and purified on nickel agarose according to standard procedures. Purified GID-2/his was added to a reaction cocktail having a final volume of 20 microliters and containing 25 nanomolar recombinantly-generated GSK-3 beta in GSK-3 assay buffer, as described (Klein et al., 1996, Proc. Natl. Acad. Sci. USA 93:8455-8459). This reaction mixture was incubated at 0° C. for one hour. After this incubation period, half of the mixture was assayed for GSK-3 beta activity, and the other half was incubated with nickel-agarose at 4° C. for one hour with rotation. The agarose was washed three times using PBS, and then Laemmli sample buffer was added. The samples were boiled for five minutes and then subjected to immunoblotting using anti-GSK-3 beta antibody.
(§2) GSK-3 beta (25 nanomolar) was incubated with GID-2/his (up to 200-fold molar excess), and each mixture was assayed to detect either protein kinase activity or, in parallel, protein-protein interaction. Interaction between GSK-3 beta and GID-2/his was detected by purification on nickel agarose followed by immunoblotting with GSK-3 beta-specific antibodies. […]

GSK-3 beta [4] = experiment: In vitro GSK-3 beta activity assay with purified GID-2/his; type: biochemical
Procedure: as §1
A cDNA (GID-2) encoding amino acid residues 320-429 of Xaxin was cloned into pET29b (Novagen, Madison, Wis.) in frame with the His-epitope tag. The resulting encoded GID-2/his fusion protein was expressed in BL2I/DE3 cells and purified on nickel agarose according to standard procedures. […]
as §2

FL Xaxin = target: T1, FL Xaxin (Xenopus laevis, UniProt Q9YGY0); experiment: Yeast two hybrid assay, interaction with FL Xaxin; type: binding; details: beta-galactosidase filter assay in S. cerevisiae
T1 construct: expressed in transfected cells; host or cells: Saccharomyces cerevisiae
T1 sequence (Q9YGY0 whole entry): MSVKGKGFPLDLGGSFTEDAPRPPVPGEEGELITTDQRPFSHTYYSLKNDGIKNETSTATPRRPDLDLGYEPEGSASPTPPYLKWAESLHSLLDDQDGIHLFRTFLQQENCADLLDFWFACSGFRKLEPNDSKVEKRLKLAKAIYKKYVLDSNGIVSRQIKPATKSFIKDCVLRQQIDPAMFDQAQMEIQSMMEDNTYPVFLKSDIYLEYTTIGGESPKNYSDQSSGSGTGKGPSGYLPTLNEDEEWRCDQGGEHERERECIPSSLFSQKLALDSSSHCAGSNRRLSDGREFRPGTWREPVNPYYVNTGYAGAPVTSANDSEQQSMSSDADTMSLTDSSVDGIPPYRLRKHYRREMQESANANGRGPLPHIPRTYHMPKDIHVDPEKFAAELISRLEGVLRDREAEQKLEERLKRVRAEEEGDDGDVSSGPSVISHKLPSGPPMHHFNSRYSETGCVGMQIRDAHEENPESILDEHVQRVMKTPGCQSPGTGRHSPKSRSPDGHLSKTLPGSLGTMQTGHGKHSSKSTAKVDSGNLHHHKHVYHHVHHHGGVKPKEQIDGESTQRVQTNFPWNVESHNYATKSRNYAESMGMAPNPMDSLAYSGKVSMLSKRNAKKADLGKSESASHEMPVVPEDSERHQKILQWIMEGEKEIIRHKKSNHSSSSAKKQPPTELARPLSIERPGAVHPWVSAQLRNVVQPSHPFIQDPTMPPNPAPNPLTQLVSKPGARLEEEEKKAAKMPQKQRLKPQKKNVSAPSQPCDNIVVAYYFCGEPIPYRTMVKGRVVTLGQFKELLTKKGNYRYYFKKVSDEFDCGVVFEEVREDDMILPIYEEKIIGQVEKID
Excerpt: FL Xaxin was cloned in frame with the GAL4 DNA binding domain (BD) in plasmid pAS2-1 (Clontech) to yield BD plasmid. Expression of BD plasmid yielded a Xaxin-GAL4 fusion protein. FL Xaxin, deltaDIX Xaxin, and a fragment (designated “AID”) encoding amino acid residues 489-777 of Xaxin were cloned in frame with the GAL4 transcriptional activation domain (AD) in the vector pACT2 to yield AD plasmids. Yeast were transformed with BD and AD plasmids using previously described protocols (Clontech, Palo Alto, Calif.). Transformed colonies were selected and assayed for beta-galactosidase activity in order to detect interacting proteins. In addition, three Xenopus axin partial length cDNAs (designated Y2H 2, Y2H 6, Y2H 7; all in plasmid pACT2) isolated from a previous yeast two hybrid screen (Hedgepeth et al., 1999, Mech. Develop. 80:147-151) were analyzed. Purification of GID
Using the yeast two hybrid assay, the ability of axin to bind with itself, with other members of the wnt pathway, or with the G(alpha)q subunit of heterotrimeric G-proteins, was investigated. […]
Saccharomyces cerevisiae cells were transformed with the bait vector and with one of the target vectors. Interaction was assessed using a filter assay to detect beta-galactosidase activity, as described (Fields et al., 1989, Nature 340:245-247; Harper et al., 1993, Cell 75:805-816). […]

Molecule	binding with GSK-3 beta (co-immunoprecipitation) (GSK-3 beta [1])	accumulation of beta-catenin (beta-catenin)	GSK-3 beta-mediated tau phosphorylation (GSK-3 beta activity) (GSK-3 beta [2])	effect on axial development / axis formation (Xenopus embryos)	binding of GSK-3 beta (nickel agarose, immunoblot) (GSK-3 beta [3])	GSK-3 beta mediated phosphorylation of the GS-2 peptide (GSK-3 beta [4]; 25 nanomolar GSK-3 beta, GID-2/his up to 200-fold molar excess)	phosphorylation of tau by GSK-3 beta in vitro (GSK-3 beta [4]; GID-2/his at a 200-fold molar excess)	interaction with FL Xaxin (self-interaction) (FL Xaxin)
amino-terminal fragment: Myc-tagged fragment, amino acid residues 63-288 of Xaxin (protein, left off: small tags and cut ends, Myc-tagged fragment, amino acid residues 63-288 of Xaxin) RPDLDLGYEPEGSASPTPPYLKWAESLHSLLDDQDGIHLFRTFLQQENCADLLDFWFACSGFRKLEPNDSKVEKRLKLAKAIYKKYVLDSNGIVSRQIKPATKSFIKDCVLRQQIDPAMFDQAQMEIQSMMEDNTYPVFLKSDIYLEYTTIGGESPKNYSDQSSGSGTGKGPSGYLPTLNEDEEWRCDQGGEHERERECIPSSLFSQKLALDSSSHCAGSNRRLSD	Neither the amino- nor carboxyl-terminal fragments of axin bound	not observed	no effect	no apparent effect				
carboxyl-terminal fragment: Myc-tagged fragment, amino acid residues 429-713 of Xaxin (protein, left off: small tags and cut ends, Myc-tagged fragment, amino acid residues 429-713 of Xaxin) SGPSVISHKLPSGPPMHHFNSRYSETGCVGMQIRDAHEENPESILDEHVQRVMKTPGCQSPGTGRHSPKSRSPDGHLSKTLPGSLGTMQTGHGKHSSKSTAKVDSGNLHHHKHVYHHVHHHGGVKPKEQIDGESTQRVQTNFPWNVESHNYATKSRNYAESMGMAPNPMDSLAYSGKVSMLSKRNAKKADLGKSESASHEMPVVPEDSERHQKILQWIMEGEKEIIRHKKSNHSSSSAKKQPPTELARPLSIERPGAVHPWVSAQLRNVVQPSHPFIQDPTMPPN	Neither the amino- nor carboxyl-terminal fragments of axin bound	not observed	no effect	no apparent effect				
GID-2/his: His-tagged fusion protein of Xaxin residues 320-429, expressed in E. coli and purified on nickel agarose (protein, left off: small tags and cut ends, His-tagged fusion protein of Xaxin residues 320-429, expressed in E. coli and purified on nickel agarose) DSEQQSMSSDADTMSLTDSSVDGIPPYRLRKHYRREMQESANANGRGPLPHIPRTYHMPKDIHVDPEKFAAELISRLEGVLRDREAEQKLEERLKRVRAEEEGDDGDVSS					bound specifically	no significant effect	did not inhibit	
AID: fragment of amino acid residues 489-777 of Xaxin, axin self-interaction domain (protein, left off: large carriers) PGTGRHSPKSRSPDGHLSKTLPGSLGTMQTGHGKHSSKSTAKVDSGNLHHHKHVYHHVHHHGGVKPKEQIDGESTQRVQTNFPWNVESHNYATKSRNYAESMGMAPNPMDSLAYSGKVSMLSKRNAKKADLGKSESASHEMPVVPEDSERHQKILQWIMEGEKEIIRHKKSNHSSSSAKKQPPTELARPLSIERPGAVHPWVSAQLRNVVQPSHPFIQDPTMPPNPAPNPLTQLVSKPGARLEEEEKKAAKMPQKQRLKPQKKNVSAPSQPCDNIVVAYYFCGEPIPYR								sufficient to mediate axin self-interaction
